Measured values: article PMC8239744, “Mutations in myosin S2 alter cardiac myosin-binding protein-C interaction in hypertrophic cardiomyopathy in a phosphorylation-dependent manner” (The Journal of Biological Chemistry, 2021)

Key:
[1] = target: human β-myosin heavy chain, proximal S2 (hS2) proximal S2, 838-963 (UniProt P12883); experiment: solid-phase binding assay (SPBA); conditions: sites S273,S282,S302
[2] = target: PKA-phosphorylated human C0-C2 (hC0-C2p) (human) (UniProt Q14896); experiment: solid-phase binding assay (SPBA); 20 μM C0-C2 (bait) adsorbed onto microtiter plates overnight at 4 °C; 0-20 μM recombinant myosin S2 (prey) added; bound S2 detected with polyclonal anti-S2 antibody and Alexa Fluor 568 secondary antibody; intensity normalised to that at maximal S2; one-phase association fit for Bmax and Kd
[3] = target: mouse recombinant C0-C2 protein, phospho-ablated (mC0-C2^AAA) (mouse) (UniProt O70468); experiment: as above
[4] = target: human C0-C2 region of cardiac myosin-binding protein-C (hC0-C2) (human) (UniProt Q14896); experiment: as above
[5] = target: mouse recombinant C0-C2 protein, phospho-mimetic (mC0-C2^DDD) (mouse) (UniProt O70468); experiment: as above
[6] = target: PKA-phosphorylated human C0-C2 (hC0-C2p) (human) (UniProt Q14896); experiment: ITC; 350 μM hS2 titrated into 20 μM hC0-C2 (with or without PKA phosphorylation) in PBS at 20 °C; MicroCal VP-ITC; 25 injections of 10 μl at 180 s; four-parameter logistic fit; Kd calculated from the reciprocal of the slope
[7] = target: human C0-C2 region of cardiac myosin-binding protein-C (hC0-C2) (human) (UniProt Q14896); experiment: as above
[8] = target: mouse recombinant C0-C2 protein, WT (mC0-C2^Wt) (mouse, UniProt O70468 1-448); experiment: solid-phase binding assay (SPBA); 20 μM C0-C2 (bait) adsorbed onto microtiter plates overnight at 4 °C; 0-20 μM recombinant myosin S2 (prey) added; bound S2 detected with polyclonal anti-S2 antibody and Alexa Fluor 568 secondary antibody; intensity normalised to that at maximal S2; one-phase association fit for Bmax and Kd; conditions: both partners purified
Sequence of mouse recombinant C0-C2 protein, WT (mC0-C2^Wt) (O70468 1-448): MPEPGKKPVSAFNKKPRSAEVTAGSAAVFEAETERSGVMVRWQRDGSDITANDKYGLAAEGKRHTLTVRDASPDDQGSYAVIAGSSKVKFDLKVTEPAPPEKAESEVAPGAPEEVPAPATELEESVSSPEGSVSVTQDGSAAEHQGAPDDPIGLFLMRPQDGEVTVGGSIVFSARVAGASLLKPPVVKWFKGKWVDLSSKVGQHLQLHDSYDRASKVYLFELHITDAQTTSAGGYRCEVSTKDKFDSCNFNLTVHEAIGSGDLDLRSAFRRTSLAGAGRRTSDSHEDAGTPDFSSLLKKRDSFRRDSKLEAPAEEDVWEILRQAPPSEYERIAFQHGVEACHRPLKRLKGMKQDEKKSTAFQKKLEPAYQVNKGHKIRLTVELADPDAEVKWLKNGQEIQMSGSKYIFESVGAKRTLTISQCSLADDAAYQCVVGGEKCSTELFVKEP

Sequence of mouse recombinant C0-C2 protein, phospho-ablated (mC0-C2^AAA) (mouse) (O70468 other isoform, or with tags, fused parts or gaps): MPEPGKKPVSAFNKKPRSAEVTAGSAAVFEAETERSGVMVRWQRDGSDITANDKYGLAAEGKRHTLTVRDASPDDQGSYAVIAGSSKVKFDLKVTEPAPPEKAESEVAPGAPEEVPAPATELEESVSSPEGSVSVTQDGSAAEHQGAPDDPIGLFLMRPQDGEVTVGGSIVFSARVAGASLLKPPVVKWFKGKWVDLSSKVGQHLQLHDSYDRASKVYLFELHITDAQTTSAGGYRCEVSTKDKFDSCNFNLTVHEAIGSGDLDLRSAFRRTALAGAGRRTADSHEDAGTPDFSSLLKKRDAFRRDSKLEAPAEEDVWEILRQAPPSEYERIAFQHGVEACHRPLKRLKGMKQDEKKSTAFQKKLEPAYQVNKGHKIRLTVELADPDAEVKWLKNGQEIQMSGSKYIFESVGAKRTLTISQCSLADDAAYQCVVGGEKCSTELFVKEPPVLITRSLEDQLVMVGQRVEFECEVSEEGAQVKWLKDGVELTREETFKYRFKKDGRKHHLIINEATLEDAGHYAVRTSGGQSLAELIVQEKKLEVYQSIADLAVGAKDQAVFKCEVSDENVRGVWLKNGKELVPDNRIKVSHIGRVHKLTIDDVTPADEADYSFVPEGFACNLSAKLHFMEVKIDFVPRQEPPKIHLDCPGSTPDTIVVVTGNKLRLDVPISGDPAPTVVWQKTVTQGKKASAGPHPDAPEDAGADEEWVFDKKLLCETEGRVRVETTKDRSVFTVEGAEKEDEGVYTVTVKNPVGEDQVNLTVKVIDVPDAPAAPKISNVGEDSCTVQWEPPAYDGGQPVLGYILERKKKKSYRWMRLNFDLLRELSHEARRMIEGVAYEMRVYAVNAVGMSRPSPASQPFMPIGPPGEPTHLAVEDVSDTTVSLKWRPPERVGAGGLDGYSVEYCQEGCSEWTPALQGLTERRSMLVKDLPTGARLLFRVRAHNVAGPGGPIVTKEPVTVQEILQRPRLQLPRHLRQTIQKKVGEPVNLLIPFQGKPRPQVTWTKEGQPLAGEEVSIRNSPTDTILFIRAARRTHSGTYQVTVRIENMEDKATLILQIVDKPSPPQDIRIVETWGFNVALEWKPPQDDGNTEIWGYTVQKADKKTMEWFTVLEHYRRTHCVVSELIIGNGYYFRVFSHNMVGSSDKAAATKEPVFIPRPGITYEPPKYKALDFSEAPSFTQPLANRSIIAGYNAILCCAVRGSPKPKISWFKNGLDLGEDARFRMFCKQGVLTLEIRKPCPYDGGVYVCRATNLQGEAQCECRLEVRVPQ
Sequence of mouse recombinant C0-C2 protein, phospho-mimetic (mC0-C2^DDD) (mouse) (O70468 other isoform, or with tags, fused parts or gaps): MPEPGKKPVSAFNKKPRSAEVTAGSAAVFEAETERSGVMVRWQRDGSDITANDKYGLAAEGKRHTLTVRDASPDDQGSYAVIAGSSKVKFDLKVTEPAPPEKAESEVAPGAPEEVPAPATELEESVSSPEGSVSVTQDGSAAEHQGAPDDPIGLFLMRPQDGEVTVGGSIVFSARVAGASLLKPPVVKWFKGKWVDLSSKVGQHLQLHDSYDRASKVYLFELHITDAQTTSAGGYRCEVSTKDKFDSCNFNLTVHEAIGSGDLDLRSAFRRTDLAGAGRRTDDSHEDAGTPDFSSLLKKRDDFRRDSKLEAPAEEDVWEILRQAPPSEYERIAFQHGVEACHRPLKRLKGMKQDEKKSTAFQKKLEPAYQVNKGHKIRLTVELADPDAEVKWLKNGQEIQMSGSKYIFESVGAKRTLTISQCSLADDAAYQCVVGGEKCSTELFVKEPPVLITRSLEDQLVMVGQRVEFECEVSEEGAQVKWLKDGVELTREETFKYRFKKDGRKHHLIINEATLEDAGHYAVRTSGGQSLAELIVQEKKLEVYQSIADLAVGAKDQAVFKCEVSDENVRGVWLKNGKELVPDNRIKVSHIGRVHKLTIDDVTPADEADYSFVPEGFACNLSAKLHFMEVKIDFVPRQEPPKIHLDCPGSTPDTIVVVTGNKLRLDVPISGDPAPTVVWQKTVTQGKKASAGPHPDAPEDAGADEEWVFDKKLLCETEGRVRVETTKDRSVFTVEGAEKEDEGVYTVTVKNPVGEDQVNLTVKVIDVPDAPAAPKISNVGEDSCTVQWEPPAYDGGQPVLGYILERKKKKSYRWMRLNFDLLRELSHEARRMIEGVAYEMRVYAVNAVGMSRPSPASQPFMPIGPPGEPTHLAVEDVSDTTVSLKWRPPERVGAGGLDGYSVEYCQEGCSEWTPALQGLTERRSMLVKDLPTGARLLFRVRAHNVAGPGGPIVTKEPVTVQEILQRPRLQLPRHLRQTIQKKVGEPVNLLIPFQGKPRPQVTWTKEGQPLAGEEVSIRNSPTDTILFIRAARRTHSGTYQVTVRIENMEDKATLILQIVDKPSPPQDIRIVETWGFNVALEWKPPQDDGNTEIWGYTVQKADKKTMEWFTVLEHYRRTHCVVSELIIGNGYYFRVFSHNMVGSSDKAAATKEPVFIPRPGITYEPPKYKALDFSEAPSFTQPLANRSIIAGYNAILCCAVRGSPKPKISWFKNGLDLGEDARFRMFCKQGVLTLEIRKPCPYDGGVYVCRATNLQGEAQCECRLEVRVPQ

Molecule | other: Bmax ([1]; reference: mC0-C2 AAA) | other: Bmax ([1]; reference: mC0-C2 wild type) | Kd [2] [nM] | stoichiometry (η) based on Bmax, hC0-C2p to hS2 mutant [2] | Kd [3] [nM] | Kd [4] [nM] | stoichiometry (η) based on Bmax, hC0-C2 to hS2 mutant compared with hS2^WT [4] | Kd [5] [nM] | Kd [6] [nM] | stoichiometry N [6] | Kd [7] [nM] | Kd [8] [nM] | stoichiometry (η) based on Bmax, hC0-C2p to hS2^Wt compared with hC0-C2 to hS2^WT [2] | stoichiometry N [7]
mouse cardiac myosin-binding protein-C (cMyBP-C), mC0-C2 C0-C2 (from UniProt O70468) mC0-C2 DDD | weaker; reference 0.95 ± 0.04 | weaker; reference 1.02 ± 0.04 | – | – | – | – | – | – | – | – | – | – | – | –
human recombinant proximal S2 protein with E930Δ mutation (hS2^E930Δ) (domain or fragment, UniProt P12883 838-963, looked up, human β-myosin heavy chain (MYH7), proximal S2, residues 838-963, with the HCM-causing deletion of E930; mutation found in HCM patients, introduced by site-directed mutagenesis; coiled coil in low-salt buffer by CD) PLLKSAEREKEMASMKEEFTRLKEALEKSEARRKELEEKMVSLLQEKNDLQLQVQAEQDNLADAEERCDQLIKNKIQLEAKVKEMNERLEDEEMNAELTAKKRKLEDECSELKRDIDDLELTLAK | – | – | 970 | 1.24 | 1220 | 6670 | 1.23 | 880 | 8570 | 0.35 | 42300 | 1320 | – | –
human recombinant proximal S2 WT protein (hS2^Wt) (domain or fragment, UniProt P12883 838-963, looked up, pET28a+ vector; also called WT hS2; human cardiac myosin S2) PLLKSAEREKEMASMKEEFTRLKEALEKSEARRKELEEKMVSLLQEKNDLQLQVQAEQDNLADAEERCDQLIKNKIQLEAKVKEMNERLEDEEEMNAELTAKKRKLEDECSELKRDIDDLELTLAK | – | – | 7350 | – | 1810 | 5040 | – | 2020 | – | – | 4710 | 1890 | 1.26 | 1.08
human recombinant proximal S2 protein with R870H mutation (hS2^R870H) (domain or fragment, UniProt P12883 838-963, looked up, human β-myosin heavy chain (MYH7), proximal S2, residues 838-963, with the HCM-causing mutation R870H; mutation found in HCM patients, introduced by site-directed mutagenesis; coiled coil in low-salt buffer by CD) PLLKSAEREKEMASMKEEFTRLKEALEKSEARHKELEEKMVSLLQEKNDLQLQVQAEQDNLADAEERCDQLIKNKIQLEAKVKEMNERLEDEEEMNAELTAKKRKLEDECSELKRDIDDLELTLAK | – | – | 1260 | 1.17 | 1510 | 6290 | 1.24 | 790 | 11000 | 1.07 | 19000 | 1640 | – | 2.53
human recombinant proximal S2 protein with E924K mutation (hS2^E924K) (domain or fragment, UniProt P12883 838-963, looked up, human β-myosin heavy chain (MYH7), proximal S2, residues 838-963, with the HCM-causing mutation E924K; mutation found in HCM patients, introduced by site-directed mutagenesis; coiled coil in low-salt buffer by CD) PLLKSAEREKEMASMKEEFTRLKEALEKSEARRKELEEKMVSLLQEKNDLQLQVQAEQDNLADAEERCDQLIKNKIQLEAKVKEMNKRLEDEEEMNAELTAKKRKLEDECSELKRDIDDLELTLAK | – | – | 830 | 1.21 | 1480 | 4300 | 1.21 | 740 | 16500 | 2.57 | 30500 | 1510 | – | –
